{"source": "paper PMC12612047", "about": "(Nature Communications, 2025)", "test_system": "CNA/B", "assay": "Affinity of CLMB T44E for CNA/B", "format": "binding", "details": "glutamate for threonine at position 44; data not shown"}
{"molecule": "CLMB^T44E (protein) MGLKMSCLKGFQMCVSSSSSSHDEAPVLNDKHLDVPDIIITPPEPTGMMLPRDLGSTVWLDETGSCPDDGEIDPEA", "values": [{"measurement": "affinity for CNA/B relative to CLMB", "result": "failed to show increased affinity"}]}
